Drawing on PMC5780203, this text covers fold weaker Kd than the native H3K4me3 peptide and fold tighter binding than the H3KC9me3 peptide for two substances.

Experiment [1] concerns the target PHD finger of human BPTF protein (human). The experiment can be described thus: ITC. Background: In ITC the heat of successive injections is recorded.
In the next experiment the target is chromodomain of CBX5. The experiment can be described thus: ITC.

On to “H3KC4me3 peptide MLA (methyllysine analog of H3K4me3)”, for which the fold weaker Kd than the native H3K4me3 peptide in experiment [1] was 13 fold.

For trimethylated H3 lysine 9 peptide, the fold tighter binding than the H3KC9me3 peptide with chromodomain of CBX5 was determined as 6 fold.
